Consider two substances from patent US20220125891.

The test system of the series is T1, FLAG-tagged Regnase-1 AA mutant (S435A/S439A) from Regnase-1-deficient MEFs.
T1 sequence: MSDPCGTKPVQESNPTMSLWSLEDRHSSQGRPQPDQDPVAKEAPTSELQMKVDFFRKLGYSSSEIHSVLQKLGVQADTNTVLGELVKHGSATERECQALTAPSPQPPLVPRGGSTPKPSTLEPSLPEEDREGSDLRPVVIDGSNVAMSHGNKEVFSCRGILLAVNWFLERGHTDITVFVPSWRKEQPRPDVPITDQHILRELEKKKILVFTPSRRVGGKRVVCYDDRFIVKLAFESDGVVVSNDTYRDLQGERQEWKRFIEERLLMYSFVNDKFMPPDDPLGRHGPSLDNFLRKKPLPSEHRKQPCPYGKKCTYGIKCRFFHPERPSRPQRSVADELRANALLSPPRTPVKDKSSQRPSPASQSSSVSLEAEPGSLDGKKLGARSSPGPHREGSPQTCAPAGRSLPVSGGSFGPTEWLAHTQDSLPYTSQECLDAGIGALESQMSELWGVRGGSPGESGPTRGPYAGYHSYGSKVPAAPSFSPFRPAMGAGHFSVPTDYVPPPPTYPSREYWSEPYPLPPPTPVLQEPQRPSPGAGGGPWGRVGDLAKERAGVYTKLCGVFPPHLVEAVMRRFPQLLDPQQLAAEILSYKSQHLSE

Consider GST-tagged TBK1 (Sigma), for which the “in vitro phosphorylation (mobility shift by immunoblotting, 32P autoradiography)” value is recorded as “Phosphorylation of recombinant Regnase-1 by recombinant TBK1 and/or IKKi under in vitro conditions was detected”. The entry for “GST-tagged IKKi (Thermo Fisher Scientific)” is “Phosphorylation of recombinant Regnase-1 by recombinant TBK1 and/or IKKi under in vitro conditions was detected”.
